# Reference: article PMC10942606
# T1: SpPCNA (recombinant S. pombe PCNA) (S. pombe), Q03392
# T1 chain: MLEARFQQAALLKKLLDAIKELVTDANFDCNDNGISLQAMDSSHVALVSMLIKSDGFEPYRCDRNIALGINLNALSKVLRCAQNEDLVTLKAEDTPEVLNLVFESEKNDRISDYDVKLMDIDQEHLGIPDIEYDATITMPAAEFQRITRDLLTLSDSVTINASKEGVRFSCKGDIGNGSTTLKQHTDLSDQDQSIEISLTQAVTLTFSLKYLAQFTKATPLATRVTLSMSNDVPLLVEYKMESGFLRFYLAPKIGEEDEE
# Target: T1, SpPCNA (recombinant S. pombe PCNA) (S. …)
# Assay: ITC
Kd,dH,stoichiometry N,Binder
3.5 µM,-4.8 kCal.M^–1,0.9,KNTAQSKPQQKSIMSFFGKK (modifications not checked) [Cdc27_PIP peptide]
7.1 µM,-2.9 kCal.M^–1,0.97,QLKLNNFF (modifications not checked) [Pcf1_PIP peptide]
